Data from the supplement of paper PMC12764529.
± gives the half width of the 95% confidence interval.

Legend:
[1] = folding stability dG unfold from trypsin proteolysis; higher = more stable
Outline: (§1)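 Unfolding free energy was derived, per protease or combined, by relating Bayesian-fitted K50 values from sequencing counts to a sequence-predicted unfolded-state K50 and a shared folded-state K50. The underlying digests exposed cysteine-free mini-proteins under 80 residues, in a PA-tagged cDNA display construct, to trypsin and chymotrypsin at 11 threefold-diluted concentrations and to a no-protease condition. A filter kept only designs with AlphaFold2 dimer inter-PAE above 15.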

[2] = folding stability dG unfold from chymotrypsin proteolysis; higher = more stable
Outline: as §1

[3] = folding stability dG unfold (combined trypsin and chymotrypsin); higher = more stable
Outline: as §1

| Sequence | folding stability dG unfold [1] | folding stability dG unfold [2] | folding stability dG unfold [3] |
| --- | --- | --- | --- |
| SAGGKKKKPERVEVTIVLPPEILEAIKAGKPLTKEEIAKLLGLPPGAEIKIERREDGYLVIKITLPKSAGGS [r16_679_TrROS_Hall] | 1.61 ± 0.03 kcal/mol | 3.19 ± 0.044 kcal/mol | 2.8 ± 0.069 kcal/mol |
| SAGGKKKKVKKVKVEVKVTVTLTIKLPKEKIKSKEEAEALAKKLLEELGIEGAKVKIEEKDGYLTLTFSAGG [r13_130_TrROS_Hall] | 2.66 ± 0.092 kcal/mol | 4.24 ± 0.2 kcal/mol | 3.85 ± 0.39 kcal/mol |
| SAGGKKKPKVKTITITLPKKDIKIGDVITAEEIAKLLGLPKNAKIKVVEVKYDKETGEVTIKIEIYESAGGS [r16_165_TrROS_Hall] | 1.98 ± 0.045 kcal/mol | 3.29 ± 0.1 kcal/mol | 2.96 ± 0.11 kcal/mol |
| SAGGKKKPPKVKIVSIEVEVFKNENGEKFVKVKIKFEKTNKIITITVPPGMTLEELAKKLNIEIEKESAGGS [r16_676_TrROS_Hall] | 1.67 ± 0.048 kcal/mol | 3.04 ± 0.041 kcal/mol | 2.72 ± 0.088 kcal/mol |
| SAGGKKKVKITKITSIDKKNGVITLEIEDPKTKKKYKIKAKVVKLKNGKKLLVIEIEVNGKKIKIVFKSAGG [r13_993_TrROS_Hall] | 2.49 ± 0.15 kcal/mol | 4.23 ± 0.16 kcal/mol | 3.81 ± 0.47 kcal/mol |
| SAGGKKKVTIEIVYDPEEDYVLIRIRIKDPNGNEREITIRMSRDEIKKLLEELKGKITSIEVRRLPPSAGGS [r16_298_TrROS_Hall] | 3.02 ± 0.1 kcal/mol | 3.12 ± 0.059 kcal/mol | 3.14 ± 0.12 kcal/mol |
| SAGGKKVEILEVSVKPVTLGGKKKYYLNVKVKTPDGKVVNVTMPLEVVKSLGFSIEEFAKAVAKTLLSAGGS [r16_625_TrMRF] | 2.96 ± 0.071 kcal/mol | 3.89 ± 0.045 kcal/mol | 3.61 ± 0.055 kcal/mol |
| SAGGKKVIEIEITVKPGETITITVPPGARIEIVDLDTGEVREIEIEPGETITLTLPPGSTLLIRIYEPSAGG [r19_78_TrROS_Hall] | 3.66 ± 0.25 kcal/mol | 4.04 ± 0.11 kcal/mol | 4.01 ± 0.23 kcal/mol |
| SAGGKKVKVEKVATFELEDGSKITITTVTLPNGEKLVLIEITNPNGEKKTIVVSYEDLKEVLEALKKSAGGS [r16_588_TrROS_Hall] | 2.51 ± 0.086 kcal/mol | 2.7 ± 0.16 kcal/mol | 2.65 ± 0.28 kcal/mol |
| SAGGKKVVITLTAEELEELLKEGKPLTAEEIARRLLPPGAKVTVEVTYDPETKEVTVTVVIEVPEELESAGG [r13_862_TrROS_Hall] | 2.27 ± 0.13 kcal/mol | 2.16 ± 0.21 kcal/mol | 2.22 ± 0.12 kcal/mol |
| SAGGKKYKVKVVSVEYDKETKEVTVKVEFEDNKVVVEKKVKVKLPPVKIEFSEEDLKEGKVEIKIEFSAGGS [r16_809_TrROS_Hall] | 1.46 ± 0.11 kcal/mol | 2.63 ± 0.049 kcal/mol | 2.27 ± 0.1 kcal/mol |
| SAGGKKYYLIKITVKTEKKEYTLPDGSKVTVEKTYELTIIVESKEEAEKLAEELAKKYNLEVEIVPLSAGGS [r8_131_TrROS_Hall] | 2.95 ± 0.13 kcal/mol | 4.83 ± 0.064 kcal/mol | 4.51 ± 0.13 kcal/mol |
| SAGGKLAELKEILKKLGLPKIESIEEDPETGVLRFKASSSKPILVTVPVRSLGDGSRPIEVEIKSTNISAGG [r13_410_JUSTAS] | 0.227 ± 0.24 kcal/mol | 0.448 ± 0.32 kcal/mol | 0.342 ± 0.18 kcal/mol |
| SAGGKLPKGAKIVSVEFDKETKEIRIKVEFYDKNGKLIKTIEKTIKIKPKPKLSEEEKKKLEEEKKKSAGGS [r16_697_TrROS_Hall] | 0.96 ± 0.18 kcal/mol | 1.46 ± 0.28 kcal/mol | 1.65 ± 0.23 kcal/mol |
| SAGGKLTITVKVNENGELIATVEITEVVENAKPGDVLTVKAKVVNPKTKETKEIEAKIKVENGKLVLESAGG [r13_208_TrROS_Hall] | 2.1 ± 0.077 kcal/mol | 2.33 ± 0.069 kcal/mol | 2.16 ± 0.12 kcal/mol |
| SAGGKMTLKDIEIIEVIEKDGEIEVVLIRNKKTNKVIAIPREDLEKLLSLPEDVEVVRLRIKPGEKLSAGGS [r16_61_TrROS_Hall] | 1.3 ± 0.07 kcal/mol | 1.34 ± 0.15 kcal/mol | 1.32 ± 0.18 kcal/mol |
| SAGGKNLKPIGTVTLTNPKGEKVEIVEFEGPVFVVLTPKDGSKKIVSAEGKSLEEILKELEKEGYEVEPSAG [r5_613_TrMRF] | 1.22 ± 0.061 kcal/mol | 2.15 ± 0.081 kcal/mol | 1.76 ± 0.15 kcal/mol |
| SAGGKPKVYEFEITIEFKTKTKKDKNGKTYKVKKIKIKIKVKVVVDEENKKIYIFDENGKLIAEFELSAGGS [r16_92_TrROS_Hall] | 3 ± 0.22 kcal/mol | 4.01 ± 0.13 kcal/mol | 3.72 ± 0.26 kcal/mol |
| SAGGKPPKTVTVTLTLPDGVKITIEYNEETGEVTVTIEVFKDGKLVKTITITAPSLDEALEALKKLLSAGGS [r16_55_TrROS_Hall] | 3.25 ± 0.23 kcal/mol | 4.19 ± 0.18 kcal/mol | 3.87 ± 0.13 kcal/mol |
| SAGGKPPNLKIKIEVIPIPNGYWIITFRIKVPPNEPLKIRFPDFGREIEFPPGDEVTIMILIPPDDLSAGGS [r16_56_TrROS] | 3.64 ± 0.2 kcal/mol | 4.8 ± 0.2 kcal/mol | 4.62 ± 0.35 kcal/mol |
| SAGGKQEIEIPIPYKNGMPFRIRIEWEEDPNKPRLRIPIWAPNMPASNFAEEIKKELPPDIKDVEIWPSAGG [r13_404_TrROS] | 0.685 ± 0.2 kcal/mol | 0.0456 ± 0.72 kcal/mol | 0.0846 ± 0.64 kcal/mol |

| Sequence | folding stability dG unfold [1] | folding stability dG unfold [2] | folding stability dG unfold [3] |
| --- | --- | --- | --- |
| SAGGKSISFGKKAGKEKMKEAIKKGLKNIKIVVFKDGKPEVIEVKADDLDKVFDNIPEDSIVVFEPESAGGS [r16_636_TrMRF] | 1.28 ± 0.06 kcal/mol | 2.19 ± 0.038 kcal/mol | 2.17 ± 0.17 kcal/mol |
| SAGGKTIVVPEKDVEKLLKELEKLGFKVTKVERKDGYVTVTIEVEKDGKLEKIEIRIYRPEDLDKPPSAGGS [r8_307_TrROS_Hall] | 1.1 ± 0.072 kcal/mol | 2.28 ± 0.06 kcal/mol | 2.01 ± 0.15 kcal/mol |
| SAGGKTKTYTFVLEDPVKKGIPVLAKVTVTYEPDENGNEVAPANVVVYYPDGKPEVLKVDVSNITGTGSAGG [r13_787_TrMRF] | 0.123 ± 0.13 kcal/mol | 1.11 ± 0.053 kcal/mol | 0.737 ± 0.06 kcal/mol |
| SAGGKTKVINVKVKSIEELLEKLAKLPNVKKVEVKEVNGKKEITIEVDGKKIKITKNKDGYYSIEIFPSAGG [r13_907_TrROS_Hall] | 2.16 ± 0.12 kcal/mol | 1.98 ± 0.34 kcal/mol | 2.25 ± 0.37 kcal/mol |
| SAGGKTLVIKMKFKTKEEAEEAIKKLLEELGLPEGAKIEVTVERDENGELTVTITITVKDPEVLKALSAGGS [r8_85_TrROS_Hall] | 2 ± 0.11 kcal/mol | 2.66 ± 0.036 kcal/mol | 2.48 ± 0.076 kcal/mol |
| SAGGKTLYVRIIIENKKTGKKEEKIIKIKNVKTLDELLEKAKKEAEKKGYKIKKIEVYDKKTGKKLKLSAGG [r13_771_TrROS_Hall] | 1.79 ± 0.088 kcal/mol | 1.28 ± 0.27 kcal/mol | 1.73 ± 0.39 kcal/mol |
| SAGGKTTVLIITENPDGTPKAIPIPLDELDIEEIVELIKELVEEGRKLKVFVPADTPPELIKAIKEAASAGG [r13_251_TrMRF] | 3.4 ± 0.087 kcal/mol | 3.2 ± 0.067 kcal/mol | 3.31 ± 0.056 kcal/mol |
| SAGGKTVEIKVKVKSLEELKAAIEALKKAGIKDVKVTKIELEKNEDGSLYARVTIEVEPAPEVVEEKESAGG [r13_174_TrROS_Hall] | 2.78 ± 0.095 kcal/mol | 3.08 ± 0.073 kcal/mol | 3.15 ± 0.2 kcal/mol |
| SAGGKTVIIEGMSLEELLELIKNAKPGDTITITLKVKVEEYKYENGKLVEKKEFEKTLTLTLKIEEKESAGG [r13_632_TrROS_Hall] | 2.57 ± 0.28 kcal/mol | 4.29 ± 0.19 kcal/mol | 4.1 ± 0.33 kcal/mol |
| SAGGKTVLVPVKSPEEAKIFIENFPESYDKVIVFNPETGTKAVFYIDPKTREVKEVKVEKFDLNDPNASAGG [r13_945_TrMRF] | 0.913 ± 0.017 kcal/mol | 1.22 ± 0.052 kcal/mol | 1.12 ± 0.066 kcal/mol |
| SAGGKTVTIKVTRPDGKELTIEFEEKDGKVTVRVFDKDGKLVKEIEVDSLEEALKALEEAGYEVEVVPSAGG [r13_315_TrROS_Hall] | 3.49 ± 0.22 kcal/mol | 3.36 ± 0.15 kcal/mol | 3.42 ± 0.2 kcal/mol |
| SAGGKTVTITVPEGMTEEEVKALAEKLIEEGFKEVTVTVTRTKTETLPNGKTKTVTETKTYVFKLPPSAGGS [r16_44_TrROS_Hall] | 3.45 ± 0.092 kcal/mol | 4.062 ± 0.036 kcal/mol | 3.88 ± 0.088 kcal/mol |
| SAGGKTYTIVLPIPPNVPLEEYIKKIEKLLKKLKKNVPISFNKQKKLPNGYYLINFTLTDNKVTGFGSAGGS [r8_7_TrMRF] | 1.06 ± 0.059 kcal/mol | 1.91 ± 0.12 kcal/mol | 1.72 ± 0.18 kcal/mol |
| SAGGKVAAPAQPLASTKVERTTLPTGTTVTYVTVTSSAVPTPTTYTFSPGENPGDFAAATGLPVTLVSAGGS [r16_676_JUSTAS] | -0.488 ± 0.29 kcal/mol | 0.339 ± 0.083 kcal/mol | 0.126 ± 0.092 kcal/mol |
| SAGGKVEVETKAYFIPETGEVVLLTTVRVETDEEPSEEERENLPEGATRTETFTFVFVFPAKPGSLLSAGGS [r8_274_TrMRF] | 2.46 ± 0.064 kcal/mol | 3.52 ± 0.044 kcal/mol | 3.19 ± 0.092 kcal/mol |
| SAGGKVKILKTEVFEEGDYLKIVDFVEVDSLEEIEELVKNGLENVEAEVRLLPDGRLLVVLVAEIPKESAGG [r13_506_TrMRF] | 1.26 ± 0.031 kcal/mol | 1.4 ± 0.026 kcal/mol | 1.36 ± 0.04 kcal/mol |
| SAGGKVKVEIDPKTIKVTFYDEKGKKIGEIEIEVKPLPIVIENIPLEDIEALKEKFPDIPIIINPDNISAGG [r13_235_TrMRF] | 2.47 ± 0.22 kcal/mol | 1.73 ± 0.17 kcal/mol | 1.83 ± 0.2 kcal/mol |
| SAGGKVLVFYAPSPELIEKWAKELGLKLKKVSKEGDKFVAEFELPSGEKVLVVADEEAFKKLGIDPEKISAG [r5_12_TrMRF] | 2.93 ± 0.1 kcal/mol | 4.09 ± 0.12 kcal/mol | 3.74 ± 0.18 kcal/mol |
| SAGGKVVPILIEGELTAEEIKALIPPGELAVLYDLETGEVRVFSPEDLDKIPSDVPLRFLLLIFRPDSAGGS [r8_66_TrMRF] | 2.93 ± 0.051 kcal/mol | 4.31 ± 0.058 kcal/mol | 3.92 ± 0.11 kcal/mol |
| SAGGKVVPKNVKLPVTKEAEELAKKLAPELGYKKAEVKVKSAVEGYVKVEIYFPETGKKVEITVPVGSAGGS [r16_281_TrMRF] | -0.0217 ± 0.086 kcal/mol | 1.04 ± 0.025 kcal/mol | 0.739 ± 0.07 kcal/mol |
